Assay results reported in article PMC10599630, “Human interleukin-12α and EBI3 are cytokines with anti-inflammatory functions” (Science Advances, 2023).
Blank lines part the entries; values can stand above or below the binder they belong to.

Legend:
[1] = target: T1, EBI3 (purified from Expi293) (human, UniProt Q14213 21-229); assay: pull-down; called co-IP with purified proteins: 1 μg of one protein and an equimolar amount of the other in 200 μl PBS, 1 hour at room temperature; Ni-nitrilotriacetic acid beads 2 hours at 4°C; wash PBS with 20 mM imidazole, elution 500 mM imidazole; details: both partners purified
T1 construct: human EBI3, UniProt Q14213; untagged; Untagged; pHEK293 ultra expression vector 1; also called recombinant human EBI3; source: Expi293, co-transfected with IL-27α^L162C,His
T1 sequence (looked up): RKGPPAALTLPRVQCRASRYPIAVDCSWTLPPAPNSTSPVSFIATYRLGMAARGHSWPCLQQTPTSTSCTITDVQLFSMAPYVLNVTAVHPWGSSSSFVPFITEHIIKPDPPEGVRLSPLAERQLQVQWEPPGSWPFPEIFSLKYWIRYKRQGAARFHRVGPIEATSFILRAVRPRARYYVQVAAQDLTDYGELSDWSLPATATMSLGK

[2] = target: T2, recombinant human IL-12β^C199S (previously purified) (human, UniProt P29460 23-328, C199S); assay: as above; details: both partners purified
T2 construct: human interleukin-12 subunit beta (IL-12β/p40), UniProt P29460, with C199S; it may be the same construct as m7; also called p40 C199S; source: previously purified in our laboratory
T2 sequence (looked up): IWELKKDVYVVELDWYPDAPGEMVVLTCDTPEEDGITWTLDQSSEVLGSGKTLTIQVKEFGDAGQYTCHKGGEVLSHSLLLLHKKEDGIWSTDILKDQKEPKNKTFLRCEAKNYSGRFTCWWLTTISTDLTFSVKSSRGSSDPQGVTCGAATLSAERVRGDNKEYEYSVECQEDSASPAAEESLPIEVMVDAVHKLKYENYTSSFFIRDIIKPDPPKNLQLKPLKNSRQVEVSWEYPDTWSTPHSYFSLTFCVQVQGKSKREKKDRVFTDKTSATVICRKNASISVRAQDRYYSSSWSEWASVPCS

binding result [1]: binds
B1: murine IL-27α (natural protein, UniProt Q8K3I6 29-234, looked up)
chain: FPTDPLSLQELRREFTVSLYLARKLLSEVQGYVHSFAESRLPGVNLDLLPLGYHLPNVSLTFQAWHHLSDSERLCFLATTLRPFPAMLGGLGTQGTWTSSEREQLWAMRLDLRDLHRHLRFQVLAAGFKCSKEEEDKEEEEEEEEEEKKLPLGALGGPNQVSSQVSWPQLLYTYQLLHSLELVLSRAVRDLLLLSLPRRPGSAWDS
notes: mouse interleukin-27 subunit alpha (IL-27α/p28), bought recombinant protein; also called mIL-27α; source: bought: R&D Systems, 7430-ML-010

binding result [2]: binds
B2: IL-12α^C96S,His (natural protein, human, UniProt P29459 23-219, looked up)
chain: RNLPVATPDPGMFPCLHHSQNLLRAVSNMLQKARQTLEFYPCTSEEIDHEDITKDKTSTVEACLPLELTKNESSLNSRETSFITNGSCLASRKTSFMMALCLSSIYEDLKMYQVEFKTMNAKLLMDPKRQIFLDQNMLAVIDELMQALNFNSETVPQKSSLEEPDFYKTKIKLCILLHAFRIRAVTIDRVMSYLNAS
notes: human interleukin-12 subunit alpha (IL-12α/p35), UniProt P29459, with C96S (the cysteine of the interchain disulfide bond of IL-12); C-terminal TEV cleavage site followed by a GG-linker and His-tag; pcDNA3.4TOPO vector; also called IL-12αC96S with His-tag; source: ExpiCHO, co-transfected with IL-12β^C199S; not shown: His-tag, C-terminal, kept
